# Laboratory results: publication PMC7064642
# Target: importin-α/β carrier protein complex (α/β importin heterodimer)
# Assay: MST; importin β labelled with Cy3; α/β importin heterodimers at equimolar 50 nM; MNT serially diluted from 1 µM (MNT_(N-EGF)) or 4 µM (MNT_(N-affibody), MNT_(C-EGF)); 20 mM HEPES pH 7.4, 110 mM KCl, 5 mM NaHCO3, 5 mM MgCl2, 0.1 mM CaCl2, 1 mM EGTA, 1 mM DTT; Monolith NT.115
row,Substance,Kd [nM]
1,EGF-6His-DTox-HMP-NLS modular nanotransporter (MNT_(N-EGF)),15.8
2,6His-DTox-HMP-NLS-EGF modular nanotransporter (MNT_(C-EGF)),127
